Test results: paper PMC5655446

Biological target: Vibrio cholerae ApbE (alternative pyrimidine biosynthesis protein), recombinant, without the leader sequence (Vibrio cholerae) (UniProt A5F5Y3)
Sequence (A5F5Y3 18-334): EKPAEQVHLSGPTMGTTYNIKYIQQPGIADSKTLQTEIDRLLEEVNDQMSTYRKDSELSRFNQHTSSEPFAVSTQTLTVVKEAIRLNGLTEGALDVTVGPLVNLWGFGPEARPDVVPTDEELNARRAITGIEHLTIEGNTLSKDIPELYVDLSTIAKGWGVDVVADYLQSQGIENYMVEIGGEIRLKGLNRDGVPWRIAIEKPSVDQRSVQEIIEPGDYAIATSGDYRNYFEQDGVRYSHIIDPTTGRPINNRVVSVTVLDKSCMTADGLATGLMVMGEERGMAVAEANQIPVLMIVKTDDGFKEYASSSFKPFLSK

Vibrio cholerae NqrC (subunit C of Na+-NQR), soluble, without the N-terminal transmembrane helix (domain or fragment)
Km for NqrC in the steady-state flavin transfer activity of ApbE (NqrC varied, FAD 1 mM, pH 9.0): > 100 μM
